The results in this text go back to paper doi:10.1101/2023.03.02.530591.

For the experiment, the target named is Human Macrophage Galactose Lectin (MGL) isoform 2 extracellular domain (residues Q85-H316) (human). Kind of experiment: SAXS.

With “Human Macrophage Galactose Lectin (MGL) isoform 2 extracellular domain (residues Q85-H316) (domain or fragment)”, the stoichiometry N stood at 3.
